According to patent publication US20110014209A1:

Legend:
[1] = target: HCV E1 glycoprotein (H77c), expressed from the pE1E2 vectors (hepatitis C virus H77c) (UniProt P27958); assay: cell-based or functional assay
[2] = target: CD81 MBP-LEL (maltose-binding protein fused to the CD81 large extracellular loop, residues 113-201) (human) (UniProt P60033); assay: CD81 MBP-LEL solid-phase assay, virion-incorporated E2
[3] = target: full-length human CD81 expressed on transfected CHO-K1 cells (human) (UniProt P60033); assay: binding to CD81-transfected CHO-K1 cells, 125I-9E10 detection
Sequence of full-length human CD81 expressed on transfected CHO-K1 cells (human) (P60033 whole entry): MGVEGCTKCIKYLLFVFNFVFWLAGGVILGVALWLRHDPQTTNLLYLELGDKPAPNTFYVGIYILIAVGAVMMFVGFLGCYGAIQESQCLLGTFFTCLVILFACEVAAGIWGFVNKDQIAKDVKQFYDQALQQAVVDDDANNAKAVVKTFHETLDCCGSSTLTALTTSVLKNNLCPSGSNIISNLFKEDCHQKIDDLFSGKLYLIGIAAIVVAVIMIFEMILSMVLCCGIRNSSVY

Sequence of CD81 MBP-LEL (maltose-binding protein fused to the CD81 large extracellular loop, residues 113-201) (human) (P60033 113-201 limits assumed): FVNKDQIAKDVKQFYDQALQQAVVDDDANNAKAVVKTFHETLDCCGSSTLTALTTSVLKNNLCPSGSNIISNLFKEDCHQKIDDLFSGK

Which E1E2-mediated entry of pseudotyped HIV-1 particles into Huh7 cells (luciferase) [1] does the source give for “E2 glycoprotein expressed from pE1E2 Δ3 link (igVR deletion with extended linker) (from UniProt P27958 384-571; P27958 579-746)” here?
Its E1E2-mediated entry of pseudotyped HIV-1 particles into Huh7 cells (luciferase) is 8 fold.

With “E2 glycoprotein expressed from pE1E2 Δ1 (HVR1 deletion, residues 387-408 replaced by GSSG) (from UniProt P27958 409-746)” as the substance, how does the fold increase in the overall binding curve compared to wild-type [2] read?
The fold increase in the overall binding curve compared to wild-type was 4 fold.

Which percent reduction in CD81 binding compared to E2 Δ23-myc [3] does the source give for “E2 Δ12-myc (from UniProt P27958 384-386; P27958 409-459; P27958 486-661)” here?
The percent reduction in CD81 binding compared to E2 Δ23-myc was 50%.
